Experimental data reported in PMC3317930, “A Human PrM Antibody That Recognizes a Novel Cryptic Epitope on Dengue E Glycoprotein” (PLoS ONE, 2012).

Columns and labels:
[1] = target: Dengue 3 (DENV3) strain H87, whole virus (Dengue virus 3, strain H87, UniProt P27915, strain); experiment: ELISA; conditions: both partners purified
[2] = target: Dengue 1 (DENV1) strain Hawaii, whole virus (Dengue virus 1, strain Hawaii, UniProt B5AGU1, strain); experiment: ELISA; conditions: both partners purified
[3] = target: Dengue 4 (DENV4) strain H241, whole virus (Dengue virus 4, strain H241, UniProt Q58HT7, strain); experiment: ELISA; conditions: both partners purified
[4] = target: Dengue 2 (DENV2), whole virus (Dengue virus 2, strain New Guinea C (or …, UniProt P14340, strain)); experiment: ELISA; conditions: both partners purified
[5] = target: T1, envelope (E) protein of DENV3 (Dengue virus 3, strain H87, UniProt P27915); experiment: Western blot; conditions: one partner purified
T1 construct: also called E glycoprotein; source: DENV3-infected Vero cells, in lysate

prM protein of DENV3 = prM protein of DENV3 (Dengue virus 3, strain H87, UniProt P27915); experiment: Western blot; conditions: one partner purified
[6] = target: T2, envelope (E) protein of DENV4 (Dengue virus 4, strain H241, UniProt Q58HT7); experiment: Western blot; conditions: one partner purified
T2 construct: also called E glycoprotein; source: DENV4-infected Vero cells, in lysate

[7] = target: T3, prM protein of the non-mutated prM-E construct (pCMV-prM-E) (Dengue virus 2 strain New Guinea C, UniProt P14340); experiment: Western blot; conditions: one partner purified
T3 construct: also called prM of pCMV-prM-E; source: HEK293-T cells, transfected, in lysate

B1: D29 Fab-IgG (antibody, V domains shown)
VH: QMQLVQSGGGVVQPGRSLRLSCAASGFTFSSYAMHWVRQAPGKGLEWVAGTSYDGSNKYYADSVKGRFTISGDNSKNTVYLQMNSLRAEDTAVYYCARAHSSGWYDAFDIWGQGTTVTVSS
VL: SYVLTQPPSVSVSPGQAASITCSGDKLGDKYAWWYQQKPGQSPVMVIHQDDKRPSGIPERFSGSNSGNTATLTITGTQAMDEADYYCQAWDRTTVVFGGGTKLTVL
notes: source: HEK 293 T cells (Fab from a non-immunized human Fab phage library, converted into human IgG format)
Question: Which results are given for B1?
Answer: Kd [1]: 0.114 nM; Kd [2]: 0.0905 nM; Kd [3]: 0.108 nM; Kd [4]: 0.0869 nM; binding result [5]: binds; binding result (prM protein of DENV3): binds; binding result [6]: binds; binding result [7]: binds
